The record followed here is patent US20110111494A1 (APOGENIX, published 2011).

This test deals with T1, recombinant CD95-ligand (UniProt P48023 142-281, limits assumed).
T1 sequence (looked up): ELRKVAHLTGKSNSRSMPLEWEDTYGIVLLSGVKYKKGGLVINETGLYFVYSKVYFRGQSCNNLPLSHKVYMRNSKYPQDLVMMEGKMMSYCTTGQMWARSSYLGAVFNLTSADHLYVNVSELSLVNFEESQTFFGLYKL
Kind of test: cell-based or functional assay.

Consider “dimeric CD95R-Fc fusion protein APG101 (from UniProt P25445 26-172)”, for which the EC50 (inhibition of CD95L-induced apoptosis of Jurkat cells, Caspase 3/7 activity, Ac-DEVD-AFC cleavage) stood at 0.595 µg/mL.

B1: hs95R-ASPD-St (CD95R-SP-D fusion polypeptide) (receptor)
chain: RLSSKSVNAQVTDINSKGLELRKTVTTVETQNLEGLHHDGQFCHKPCPPGERKARDCTVNGDEPDCVPCQEGKEYTDKAHFSSKCRRCRLCDEGHGLEVEINCTRTQNTKCRCKPNFFCNSTVCEHCDPCTKCEHGIIKECTLTSNTKCKEEGSSGSSGSSGSGLPDVASLRQQVEALQGQVQHLQAAFSQYKKVELFPNGQSVGEKIFKTAGFVKPFTEAQLLCTQAGGQLASPRSAAENAALQQLVVAKNEAAFLSMTDSKTEGKFTYPTGESLVYSNWAPGEPNDDGGSEDCVEIFTNGKWNDRACGEKRLVVCEFGGSPSSSSSSAWSHPQFEK
Regarding B1, the “EC50 (inhibition of CD95L-induced apoptosis of Jurkat cells, Caspase 3/7 activity, Ac-DEVD-AFC cleavage)” value is 0.573 µg/mL.

B2: hs95R-AT4-St (CD95R-T4 foldon fusion polypeptide) (receptor)
chain: RLSSKSVNAQVTDINSKGLELRKTVTTVETQNLEGLHHDGQFCHKPCPPGERKARDCTVNGDEPDCVPCQEGKEYTDKAHFSSKCRRCRLCDEGHGLEVEINCTRTQNTKCRCKPNFFCNSTVCEHCDPCTKCEHGIIKECTLTSNTKCKEEGSSGSSGSSGSGYIPEAPRDGQAYVRKDGEWVLLSTFLSGPSSSSSSAWSHPQFEK
For B2, the “EC50 (inhibition of CD95L-induced apoptosis of Jurkat cells, Caspase 3/7 activity, Ac-DEVD-AFC cleavage)” value was 0.0926 µg/mL.

B3: hs95R-A69-St (CD95R-RB69 fusion polypeptide) (receptor)
chain: RLSSKSVNAQVTDINSKGLELRKTVTTVETQNLEGLHHDGQFCHKPCPPGERKARDCTVNGDEPDCVPCQEGKEYTDKAHFSSKCRRCRLCDEGHGLEVEINCTRTQNTKCRCKPNFFCNSTVCEHCDPCTKCEHGIIKECTLTSNTKCKEEGSSGSSGSSGSGYIEDAPSDGKFYVRKDGAWVELPTASGPSSSSSSAWSHPQFEK
As to B3, the “EC50 (inhibition of CD95L-induced apoptosis of Jurkat cells, Caspase 3/7 activity, Ac-DEVD-AFC cleavage)” value turned out to be 0.0876 µg/mL.
